Measurements reported in patent US20240336900A1, “METHODS AND COMPOSITIONS RELATED TO MODIFIED METHYLTRANSFERASES AND ENGINEERED BIOSENSORS” (BOARD OF REGENTS, THE UNIVERSITY OF TEXAS SYSTEM, priority 2023, published 2024).
Positions count from the first letter of the chain named. Numbers in names are those of the source.

Tests used:
[1] = Sensitivity and selectivity of evolved RamR sensor variants; format: cell-based, Escherichia coli
Procedure: Cell culture (20 μl) bearing the sensor library was seeded into 5 ml fresh LB containing appropriate antibiotics, 100 μg ml-1 zeocin (Thermo Fisher, R25001) and 100 uM of norbelladine (for round two) and grown at 37° C. for 7 h. Following incubation, 0.5 μl of culture was diluted into 1 ml LB medium, from which 100 μl was further diluted into 900 μl LB medium. Three hundred microliters of this mixture was then plated across three LB agar plates (100 μL per plate) containing carbenicillin, chloramphenicol and 4NB dissolved in DMSO. Plates were incubated overnight at 37° C. The following day, the brightest colonies were picked and grown overnight in 1 ml LB medium containing appropriate antibiotics in a 96-deep-well plate sealed with an AeraSeal film at 37° C. A glycerol stock of cells containing pSELIS-RamR and pReg-RamR encoding the template RamR variant was also inoculated into 5 ml LB for overnight growth.
The following day, 20 μl of each culture was used to inoculate two separate wells in a new 96-deep-well plate containing 900 μl LB medium. Additionally, eight separate wells containing 1 ml LB medium were inoculated with 20 μl of the overnight culture expressing the parental RamR variant. After 2 h of growth at 37° C., the top half of the 96-well plate was induced with 100 μl LB medium containing 10 μl DMSO, whereas the bottom half of the plate was induced with 100 μl LB medium containing 4NB dissolved in 10 μl DMSO. The concentration of 4NB used for induction is typically the same concentration used in the LB agar plate for screening during that particular round of evolution. Cultures were grown for an additional 4 h at 37° C. and 250 r.p.m. and subsequently centrifuged (3,500 g, 4° C., 10 min). Supernatant was removed, and cell pellets were resuspended in 1 ml PBS. One hundred microliters of the cell resuspension for each condition was transferred to a 96-well microtiter plate, from which the fluorescence (excitation, 485 nm; emission, 509 nm) and absorbance (600 nm) were measured using the Tecan Infinite M1000 plate reader. Clones with the highest signal-to-noise ratio (generally the top 5-10% of the screened clones) were then sequenced and subcloned into a fresh pReg-RamR vector.
For sensor variant validation, the subcloned pReg-RamR vectors expressing the sensor variants were transformed into DH10B cells expressing Pramr-GFP. […]
Glycerol stocks (20% glycerol) of strains containing the plasmids of interest were inoculated into 1 ml LB medium and grown overnight at 37° C. […] The cell resuspension (100 μl) for each condition was transferred to a 96-well microtiter plate, from which the fluorescence (excitation, 485 nm; emission, 509 nm) and absorbance (600 nm) were measured using the Tecan Infinite M1000 plate reader.

[2] = Biosensor-linked O-methyltransferase activity assay; format: cell-based, Escherichia coli; settings: single mutational designs; 25, 30, 37 °C; 100 uM, 1 mM norbelladine
Procedure: Nb4OMT was expressed with the P150-RBS (riboJ) promoter-RBS on the pReg-RamR plasmid backbone (no regulator present). Cells were co-transformed with both the 40MT plasmid and the 4NB reporter plasmid and plated on an LB agar plate containing appropriate antibiotics. Three individual colonies from each transformation were picked into LB and grown overnight. Resulting cultures were diluted 50-fold into 1 ml LB medium containing the indicated concentration of norbelladine in a 96-deep-well plate and were grown at the indicated temperature for 24 h. Subsequently, the fluorescence of cultures was measured in the same manner as previously described in Dose-response measurement above.

[3] = Differential scanning fluorimetry; format: physicochemical
Procedure: Purified Nb4OMT variants in the concentration of 5 μM were prepared in 96-well low-profile PCR plates (ABgene, Thermo Scientific). 10×SYPRO® Orange (Molecular Probes) was added into each well and mixed prior to measurement in an RT-PCR machine (LightCycler 480, Roche). The protein melting experiments were carried out with a continuous temperature acquisition mode using 10 acquisitions per 1° C. in each cycle from 20° C. to 95° C. The melting curves of the Nb4OMT variants were monophasic and Tm values were derived using Boltzmann equation.

[4] = Steady state kinetics of purified Nb4OMT variants; format: biochemical
Procedure: Reactions for kinetics measurements were performed in triplicate for all enzyme variants. For each variant 1.5 ml reactions containing 3.5 nM of enzyme, 500 μM SAM, 2 mM CaCl2), and 15.625, 31.25, 62.5, 125, 250, or 500 μM norbelladine in PBS pH 7.5 were incubated at 37° C. for 4 hours. Every hour a 200 μl aliquot of each reaction was quenched by pipetting it into a 1.5 ml microcentrifuge tube with 20 μl of 2M HCl. The concentration of 4′-O-Methylnorbelladine was then determined using HPLC as described.
Kinetic data were fit in KinTek Explorer simulation and data fitting software v11 (Roy, 2018). The following minimal model was used as an input. Each line represents a step in the model and the forward reaction goes from left to right while the reverse reaction goes from right to left as written. • (1) E+S=ES • (2) ES=EP • (3) EP=E+P • (4) S=P2
3.5 nM enzyme and 15.625, 31.25, 62.5, 125, 250, and 500 M substrate. The output observable was defined as EP+P. Substrate oxidation was modeled in step (4) as irreversible with a best fit value from globally fitting data from all variants to derive k4=0.00547 min^−1.To get kout/Km and kcat: k−1, k−2, and k−3 were locked at 0 min-1 (irreversible reactions). k+3 was locked at 10,000 min-1 as to not limit the rate of turnover. k+1 and k+2 were used as variable parameters in the fitting. Under these conditions, k+2=kcat and k+1=kcat/Km. For estimates of 95% confidence intervals on kinetic parameters, confidence contour analysis was used with the FitSpace function in KinTek Explorer (Bhattacharya, 2015). Confidence contour plots are calculated by systematically varying a single rate constant and holding it fixed at a particular value while refitting the data, allowing other rate constants to float. The goodness of fit was scored by the resulting χ^2 value. The confidence interval is defined based on a threshold in χ^2 calculated from the F-distribution based on the number of data points and number of variable parameters to give the 95% confidence limits. For the data given in FIGS. 20A-20C, this threshold was 0.85 to estimate the upper and lower limits for each parameter. […] We then fit the data for these two variants to the model shown below, accounting for substrate inhibition.
As before, k+1 was allowed to float in the fitting to give kcat/Km, and k−1 was locked at 0 min^−1, k+2 was allowed to float in the fitting to give kcat, and k−2 was locked at 0 min^−1. k+3 was locked at 10,000 min^−1, and k−3 was locked at 0 min^−1. k+4 and k+6 were locked at 100 μM^−1 min^−1, and k−4 and k−6 were allowed to float in the fitting as linked parameters. k+5 was linked to k+1 and k−5 was locked at 0 min^−1. k−7 was locked at 0 min^−1, and k+7 was locked at 0.00547 min^−1.

B1: 4NB1.2: RamR variant bearing two amino acid substitutions, K63T and L66M (protein)
chain: MVARPKSEDKKQALLEAATQAIAQSGIAASTAVIARNAGVAEGTLFRYFATKDELINTLYLHLTQDMCQSMIMELDRSITDAKMMTRFIWNSYISWGLNHPARHRAIRQLAVSEKLTKETEQRADDMFPELRDLCHRSVLMVFMSDEYRAFGDGLFLALAETTMDFAARDPARAGEYIALGFEAMWRALTREEQ
modifications: Description of sequence: Improved biosensor variant K63T, L66M
- selectivity for 4NB over norbelladine [1]: 20 fold

B2: 4NB2.1: evolved RamR biosensor variant, K63T, L66M, C134D and S137G (protein)
chain: B1 chain with C135D, S138G
modifications: Description of sequence: Improved biosensor variant K63T, L66M, C134D, S137G
- selectivity for 4NB over norbelladine [1]: over 80 fold
- sensitivity relative to the HPLC method [1]: approximately 10 fold
- limit of detection ([1]; 4NB): approximately 2.5 uM

B3: H17K: Nb4OMT variant with mutation H17K (protein)
chain: MGASIDDYSLVHKNILKSEDLLKYILETSAYPREHEQLKGLREVTEKHEWSSALVPADEGLFLSMLLKLMNAKRTIEIGVYTGYSLLTTALALPEDGKITAIDVNKSYYEIGLPFIQKAGVEHKINFIESEALPVLDQMLEEMKEEDLYDYAFVDADKSNYANYHERLVKLVRIGGAILYDNTLWYGSVAYPEYPGLHPEEEVARLSFRNLNTFLAADPRVEISQVSIGDGVTICRRLY
modifications: Description of sequence: Improved enzyme variant H17K
- fluorescent signal relative to the wild-type enzyme [2]: above wild-type in at least one tested condition

B4: E36P/G40E/A53M mutant: Nb4OMT variant with mutations E36P, G40E and A53M (protein)
chain: B3 chain with K17H, E36P, G40E, A53M
- increase in Tm relative to the wild-type enzyme [3]: 5.6 °C
- Tm ([3]; 5 μM protein, SYPRO Orange): 58.4 °C
- kcat ([4]; 3.5 nM enzyme, 500 μM SAM, 37° C., PBS pH 7.5): >2 s⁻¹
- Km ([4]; calculated by dividing kcat by kcat/Km): < 83 µM
- substrate inhibition ([4]; steady state kinetic data, highest norbelladine concentration): affected by substrate inhibition

B5: V203E: Nb4OMT variant with mutation V203E (protein)
chain: B3 chain with K17H, V203E
modifications: Description of sequence: Improved enzyme variant V203E
- fluorescent signal relative to the wild-type enzyme [2]: above wild-type in at least one tested condition

B6: H17R: Nb4OMT variant with mutation H17R (protein)
chain: B3 chain with K17R
modifications: Description of sequence: Improved enzyme variant H17R Mutation
- fluorescent signal relative to the wild-type enzyme [2]: above wild-type in at least one tested condition

B7: A53R: Nb4OMT variant with substitution A53R, predicted without docking (protein)
chain: B3 chain with K17H, A53R
- fluorescent signal relative to the wild-type enzyme [2]: reduced activity under all tested conditions

B8: E36P-G40E: Nb4OMT variant with mutations E36P and G40E (protein)
chain: B3 chain with K17H, E36P, G40E
modifications: Description of sequence: Improved enzyme variant E36P-G40E
- fluorescent signal relative to the wild-type enzyme [2]: above wild-type in at least one tested condition

B9: S159E: Nb4OMT variant with mutation S159E (protein)
chain: B3 chain with K17H, S159E
modifications: Description of sequence: Improved enzyme variant S159E
- fluorescent signal relative to the wild-type enzyme [2]: above wild-type in at least one tested condition
